Assay results as given in US20260193679A1, “SYSTEMS AND METHODS FOR MODIFYING A POLYNUCLEOTIDE” (The Children's Medical Center Corporation, priority 2023, published 2026).

Tests used:
ATP1A1 = experiment: Prime editing at ATP1A1 (Q118R) in CD34+ HSPCs; PE and indels quantified by BEAT/TIDE (Sanger) or CRISPResso2 (amplicon sequencing); type: cell-based, human; details: for PE2max efficiency: compared to two substitutions (v1), no nicking sgRNA
B2M = experiment: Prime editing at B2M in CD34+ HSPCs; type: cell-based, human; details: PE2max; average, three donors; amplicon sequencing
Source text: FIGS. 6A-6D provide schematics and plots showing that modulation of nucleotide metabolism positively interacts with MMR evasion. (FIG. 6A) PE and indel quantification as determined by CRISPResso2 analysis from amplicon sequencing. The MMR evasion strategy based on the installation of additional silent mutations and the epegRNAs used to target the ATP1A1 locus are illustrated. Point mutations are illustrated in orange. 2.5×10^5 HSPCs were electroporated with PE2max RNAs targeting ATP1A1 and cultured in the presence or absence of 50 μM each dN and 25× in-house Vpx VLPs. Genomic DNA was harvested 3 days post-nucleofection. Data are plotted as mean±SEM from n=3 independent biological replicates performed with CD34^+ HSPCs from three different donors. (FIG. 6B) Same as in (FIG. 6A), but HSPCs were electroporated with Vpx mRNA and PE2max RNAs targeting B2M. Data are plotted as mean±SEM from n=3 independent biological replicates performed with CD34^+ HSPCs from three different donors. (FIG. 6C) Same as in (FIG. 6B), but HSPCs were electroporated with Vpx mRNA and PE3max RNAs targeting the HBG1/HBG2 promoters. […]
FIGS. 10A-10C provide a schematic and plots showing that modulation of nucleotide metabolism positively interacts with MMR-evading epegRNAs in quiescent HSPCs. […] (FIG. 10B) PE and indels quantification as determined by BEAT and TIDE analysis from Sanger sequencing. […]

PE2: first-generation prime editor mRNA, SEQ ID NO: 67 [reference compound]
frequency of alleles harboring the ATP1A1-Q118R mutation (ATP1A1; PE2 mRNA + epegRNA/nicking sgRNA, absence of VPX VLPs, average, two donors, Sanger sequencing): 17%

PEmax: PEmax prime editor mRNA, SEQ ID NO: 68 [reference compound]
basal level of editing, ATP1A1-Q118R allele frequency (ATP1A1; PEmax mRNA (PE3max RNAs), no dNs, average, three donors): 41%

B1: original B2M epegRNA: synthetic epegRNA to knockout B2M, single nucleotide substitution; SEQ ID NO: 12 (nucleic acid)
guide: GAGUAGCGCGAGCACAGCUAGUUUUAGAGCUAGAAAUAGCAAGUUAAAAUAAGGCUAGUCCGUUAUCAACUUGAAAAAGUGGCACCGAGUCGGUGCUCCGUGGCCUGAGCUGUGCUCGCGCCGCGGUUCUAUCUAGUUACGCGUUAAACCAACUAGAAUUU
modifications: modified_base 1 OTHER; 2'-O-methyl modified nucleotide with phosphorothioate linkage; modified_base 2 OTHER; modified_base 3 OTHER; modified_base 158 OTHER; Nucleotide with phosphorothioate linkage; modified_base 159 OTHER; 2'-O-methyl modified nucleotide with phosphorothio
PE efficiency (B2M): 2%

B2: ATP1A1-Q118R_v2 epegRNA: synthetic epegRNA, SEQ ID NO: 7; three substitutions, optimized to evade MMR (nucleic acid)
guide: GUUCCUCUUCUGUAGCAGCUGUUUUAGAGCUAGAAAUAGCAAGUUAAAAUAAGGCUAGUCCGUUAUCAACUUGAAAAAGUGGCACCGAGUCGGUGCUAGCAUCAGGGCUGCUACAGAAGAGCGCGGUUCUAUCUAGUUACGCGUUAAACCAACUAGAAUUU
modifications: modified_base 1 OTHER; 2'-O-methyl modified nucleotide with phosphorothioate linkage; modified_base 2 OTHER; modified_base 3 OTHER; modified_base 158 OTHER; Nucleotide with phosphorothioate linkage; modified_base 159 OTHER; 2'-O-methyl modified nucleotide with phosphorothio
notes: three substitutions, optimized to evade MMR
PE2max efficiency (ATP1A1): marked increase | level of improvement by Vpx mRNA co-delivery and dN supplementation (ATP1A1; quiescent HSPCs, compared with HBB and B2M epegRNAs): highest level of improvement

B3: v3 epegRNA: synthetic epegRNA, SEQ ID NO: 8; four substitutions (+3 TTGG to CCTA) (nucleic acid)
guide: GUUCCUCUUCUGUAGCAGCUGUUUUAGAGCUAGAAAUAGCAAGUUAAAAUAAGGCUAGUCCGUUAUCAACUUGAAAAAGUGGCACCGAGUCGGUGCUAGCAUUAGGGCUGCUACAGAAGAGCGCGGUUCUAUCUAGUUACGCGUUAAACCAACUAGAAUUU
modifications: modified_base 1 OTHER; 2'-O-methyl modified nucleotide with phosphorothioate linkage; modified_base 2 OTHER; modified_base 3 OTHER; modified_base 158 OTHER; Nucleotide with phosphorothioate linkage; modified_base 159 OTHER; 2'-O-methyl modified nucleotide with phosphorothio
precise prime editing allele frequency (ATP1A1; PE2max, without Vpx VLPs and dNs, average, amplicon sequencing): 20.1% | PE2max efficiency (ATP1A1): marked increase
